Reference: the RNAGym collection of RNA variant scans (doi:10.1093/molbev/msab373)

B1: Azoarcus group I ribozyme (parent)
chain: GUGCCUUGCGCCGGGAAACCACGCAAGGGAUGGUGUCAAAUUCGGCGAAACCUAAGCGCCCGCCCGGGCGUAUGGCAACGCCGAGCCAAGCUUCGGCGCCUGCGCCGAUGAAGGUGUAGAGACUAGACGGCACCCACCUAAGGCAAACGCUAUGGUGAAGGCAUAGUCCAGGGAGUGGCGAAAGUCACACAAACCGG

Variants of: B1
Test: reverse-splicing fitness (ratio to wild type); higher = more active; in vitro selection; Mg2+ level not given
Outline: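 An in vitro group I ribozyme library with randomized positions was T7-transcribed and gel-purified. In triplicate, 10 pmol RNA in EPPS pH 7.5 was reacted with 50 pmoles of a 30-nt RNA substrate for 1 h at 37 °C across several added MgCl2 levels (1–48 mM), then stopped with EDTA. Products were reverse transcribed from a substrate-complementary primer, PCR-amplified and sequenced (HiSeq 4000). Fitness is a variant's read proportion after selection over that before, normalised to wild type.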
In the case of C82G A111C A120C A145C C150G C169U U176G, the reverse-splicing fitness is reported as 0.00572.
Variant C82A A145G C150A C169U has a reverse-splicing fitness of 0.0112.
In the case of C82A A145G C150A C169A, the reverse-splicing fitness is reported as 0.0108.
C82A A145G C150A C169G gave a reverse-splicing fitness of 0.00939.
C82A C150G C169G U176G showed a reverse-splicing fitness of 0.00581.
With C82A C150G C169G U176C the reverse-splicing fitness was 0.00553.
Variant C82A C150G C169G U176A has a reverse-splicing fitness of 0.00711.
C82A A145U C150A C169A U176C gave a reverse-splicing fitness of 0.0105.
For C82A A145U C150A C169A U176A, the reverse-splicing fitness was 0.0129.
In the case of C82A A145U C150A C169A U176G, the reverse-splicing fitness is reported as 0.0053.
Variant C82G A111C A120C A145C C150G C169G U176A has a reverse-splicing fitness of 0.00984.
In the case of C82G A111C A120C A145C C150G C169G U176G, the reverse-splicing fitness is reported as 0.00608.
For C82G A111C A120C A145C C150G C169G U176C, the reverse-splicing fitness was 0.00983.
For C82G A111C A120C A145G C150U C169A U176C, the reverse-splicing fitness was 0.0142.
With C82G A111C A120C A145G C150U C169A U176A the reverse-splicing fitness was 0.0153.
Variant C82G A111C A120C A145G C150U C169A U176G has a reverse-splicing fitness of 0.00796.
Variant C82A A145C C169A U176A has a reverse-splicing fitness of 0.0087.
Work on C82A A145C C169A U176C yielded a reverse-splicing fitness of 0.00644.
For C82A A145C C169A U176G, the reverse-splicing fitness was 0.00487.
C82G A111C A120C A145C C150U C169G U176G showed a reverse-splicing fitness of 0.00745.
Work on C82G A111C A120C A145C C150U C169G U176C yielded a reverse-splicing fitness of 0.0168.
C82G A111C A120C A145C C150U C169G U176A showed a reverse-splicing fitness of 0.0246.
With C82A A145U C150U C169A the reverse-splicing fitness was 0.00956.
With C82A A145U C150U C169U the reverse-splicing fitness was 0.0127.
C82A A145U C150U C169G showed a reverse-splicing fitness of 0.00961.
Work on C82G A111C A120C A145G C150A C169G yielded a reverse-splicing fitness of 0.00768.
Variant C82G A111C A120C A145G C150A C169A has a reverse-splicing fitness of 0.0122.
For C82G A111C A120C A145G C150A C169U, the reverse-splicing fitness was 0.0117.
C82A A145U C150U U176G showed a reverse-splicing fitness of 0.0823.
With C82A A145U C150U U176A the reverse-splicing fitness was 0.273.
In the case of C82A A145U C150U U176C, the reverse-splicing fitness is reported as 0.324.
With C82A A145G C150A U176C the reverse-splicing fitness was 0.0855.
Variant C82A A145G C150A U176G has a reverse-splicing fitness of 0.0222.
C82A A145G C150A U176A showed a reverse-splicing fitness of 0.0679.
C82A A145U U176C gave a reverse-splicing fitness of 0.482.
C82A A145U U176G gave a reverse-splicing fitness of 0.157.
C82A A145U U176A showed a reverse-splicing fitness of 0.386.
For C82A C150A C169U, the reverse-splicing fitness was 0.00897.
C82A C150A C169A gave a reverse-splicing fitness of 0.0109.
For C82A C150A C169G, the reverse-splicing fitness was 0.00927.
With C82A A145U C150U C169U U176C the reverse-splicing fitness was 0.0131.
In the case of C82A A145U C150U C169U U176G, the reverse-splicing fitness is reported as 0.00508.
For C82A A145U C150U C169U U176A, the reverse-splicing fitness was 0.0118.
C82A C150G C169U gave a reverse-splicing fitness of 0.00995.
C82A C150G C169G gave a reverse-splicing fitness of 0.00738.
With C82A C150G C169A the reverse-splicing fitness was 0.00934.
C82G A111C A120C A145C C169U U176A showed a reverse-splicing fitness of 0.0165.
C82G A111C A120C A145C C169U U176G showed a reverse-splicing fitness of 0.00508.
With C82G A111C A120C A145C C169U U176C the reverse-splicing fitness was 0.0151.
With C82G A111C A120C A145C C150U U176C the reverse-splicing fitness was 0.0129.
C82G A111C A120C A145C C150U U176G gave a reverse-splicing fitness of 0.00681.
With C82G A111C A120C A145C C150U U176A the reverse-splicing fitness was 0.0114.
With C82G the reverse-splicing fitness was 0.499.
Work on C82A A145U C150G C169A U176A yielded a reverse-splicing fitness of 0.0118.
In the case of C82A A145U C150G C169A U176G, the reverse-splicing fitness is reported as 0.00583.
Work on C82A A145U C150G C169A U176C yielded a reverse-splicing fitness of 0.00974.
For C82A C169U U176G, the reverse-splicing fitness was 0.00459.
C82A C169U U176C gave a reverse-splicing fitness of 0.0153.
Variant C82A C169U U176A has a reverse-splicing fitness of 0.0166.
C82A A145G C150G C169A U176G gave a reverse-splicing fitness of 0.00857.
With C82A A145G C150G C169A U176A the reverse-splicing fitness was 0.015.
In the case of C82A A145G C150G C169A U176C, the reverse-splicing fitness is reported as 0.0124.
For C82A C169A U176A, the reverse-splicing fitness was 0.015.
With C82A C169A U176C the reverse-splicing fitness was 0.0166.
C82A C169A U176G showed a reverse-splicing fitness of 0.00441.
C82A C150U U176C gave a reverse-splicing fitness of 0.253.
With C82A C150U U176A the reverse-splicing fitness was 0.24.
For C82A C150U U176G, the reverse-splicing fitness was 0.069.
C82A A145G C150G C169A gave a reverse-splicing fitness of 0.00856.
Variant C82A A145G C150G C169G has a reverse-splicing fitness of 0.00856.
With C82A A145G C150G C169U the reverse-splicing fitness was 0.00998.
In the case of C82A C150G U176G, the reverse-splicing fitness is reported as 0.0062.
With C82A C150G U176A the reverse-splicing fitness was 0.0245.
Variant C82A C150G U176C has a reverse-splicing fitness of 0.0393.
Variant C82A A145U C150G C169U has a reverse-splicing fitness of 0.00935.
Work on C82A A145U C150G C169G yielded a reverse-splicing fitness of 0.00797.
With C82A A145U C150G C169A the reverse-splicing fitness was 0.00902.
Work on C82G A111C A120C A145G C150A C169A U176A yielded a reverse-splicing fitness of 0.0165.
In the case of C82G A111C A120C A145G C150A C169A U176C, the reverse-splicing fitness is reported as 0.0188.
Work on C82G A111C A120C A145G C150A C169A U176G yielded a reverse-splicing fitness of 0.00862.
With C82A C169G the reverse-splicing fitness was 0.00961.
With C82A C169U the reverse-splicing fitness was 0.0153.
C82A C169A gave a reverse-splicing fitness of 0.00967.
C82A A145C C150G U176A gave a reverse-splicing fitness of 0.0383.
